For data set [1], the system named is dGvpC (Ana GvpC with SG-AANDENYALAA at the C-terminus, encoded in the acoustic sensor gene for ClpXP).
In data set [2] the test system is T1, N-His Ana GvpC with ssrA degradation tag (engineered Anabaena flos-aquae GvpC, ClpXP-sensitive).
T1 sequence: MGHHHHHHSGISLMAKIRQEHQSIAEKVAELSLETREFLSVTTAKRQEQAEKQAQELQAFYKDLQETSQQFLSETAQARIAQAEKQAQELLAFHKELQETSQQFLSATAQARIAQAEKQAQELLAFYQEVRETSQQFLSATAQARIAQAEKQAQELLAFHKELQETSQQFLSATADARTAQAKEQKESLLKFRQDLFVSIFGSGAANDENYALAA

A further data set deals with T2, WT N-His-Ana-GvpC.
T2 sequence: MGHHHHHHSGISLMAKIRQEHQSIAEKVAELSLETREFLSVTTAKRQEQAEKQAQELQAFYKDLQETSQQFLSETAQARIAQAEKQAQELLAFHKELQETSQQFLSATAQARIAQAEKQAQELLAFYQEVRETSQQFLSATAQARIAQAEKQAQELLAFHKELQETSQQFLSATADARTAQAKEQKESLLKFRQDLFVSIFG

Consider “ClpXP of E. coli Nissle 1917 (native, or ClpX and ClpP cloned from the Nissle genome under the pBAD promoter)”, for which, in data set [1], the “nonlinear CNR with ClpXP induction (FIG. 10F)” value is given as “FIG. 10F shows a nonlinear CNR increase from 15.9 to 22.6” and the “nonlinear ultrasound contrast in the mouse colon” value is “Cells induced to express this enzyme showed enhanced nonlinear contrast compared to cells not expressing ClpXP”.
Regarding “ClpXP in the reconstituted cell-free TX-TL system (purified Flag-ClpXdeltaNLinkedHexamer-His6 and ClpP from the pBEST-ClpP plasmid)”, in data set [2], the “50% collapse pressure after ClpXP exposure (FIG. 9D)” value is on record as “a reduction of “50% collapse” pressure from about 476 kPa to about 223 kPa”; the “degradation on Coomassie-stained SDS-PAGE” value was “Gel electrophoresis performed after incubating GVSClpXP with this cell-free extract showed significant degradation of the engineered GvpC, compared to a negative control condition in which the extract was pre-treated with a protease inhibitor”; the “hydrostatic collapse midpoint shift (pressurized absorbance spectroscopy)” value is “a substantial weakening of the GV shell upon ClpX exposure, with the hydrostatic collapse midpoint shifting by nearly 250 kPa”; the “increase in nonlinear CNR (FIG. 9E)” value was “FIG. 9E shows an 860% increase in CNR”. Further, the “nonlinear (x-AM) ultrasound contrast enhancement” value in data set [2] is reported as “a 17 dB enhancement in the nonlinear contrast produced by GVSClpXP at an acoustic pressure of 477 kPa, in response to ClpXP activity”. Further, in the data set on WT N-His-Ana-GvpC, the “collapse pressure, ultrasound contrast and SDS-PAGE” value was “Control GVs containing wild type GvpC showed no sensitivity to ClpXP”.

(Values after US20210060185.)
